The values below come from publication PMC2994917 (The Journal of neuroscience : the official journal of the …, 2010).

In one test the target is NSF T461E mutant (Chinese hamster, UniProt P18708 1-744, T461E). The test can be described thus: far-Western, overlay or dot blot.
In another test the target is NSF S460E mutant (Chinese hamster, UniProt P18708 1-744, S460E). The test can be described thus: far-Western, overlay or dot blot.
Chain of NSF S460E mutant (P18708 whole entry S460E): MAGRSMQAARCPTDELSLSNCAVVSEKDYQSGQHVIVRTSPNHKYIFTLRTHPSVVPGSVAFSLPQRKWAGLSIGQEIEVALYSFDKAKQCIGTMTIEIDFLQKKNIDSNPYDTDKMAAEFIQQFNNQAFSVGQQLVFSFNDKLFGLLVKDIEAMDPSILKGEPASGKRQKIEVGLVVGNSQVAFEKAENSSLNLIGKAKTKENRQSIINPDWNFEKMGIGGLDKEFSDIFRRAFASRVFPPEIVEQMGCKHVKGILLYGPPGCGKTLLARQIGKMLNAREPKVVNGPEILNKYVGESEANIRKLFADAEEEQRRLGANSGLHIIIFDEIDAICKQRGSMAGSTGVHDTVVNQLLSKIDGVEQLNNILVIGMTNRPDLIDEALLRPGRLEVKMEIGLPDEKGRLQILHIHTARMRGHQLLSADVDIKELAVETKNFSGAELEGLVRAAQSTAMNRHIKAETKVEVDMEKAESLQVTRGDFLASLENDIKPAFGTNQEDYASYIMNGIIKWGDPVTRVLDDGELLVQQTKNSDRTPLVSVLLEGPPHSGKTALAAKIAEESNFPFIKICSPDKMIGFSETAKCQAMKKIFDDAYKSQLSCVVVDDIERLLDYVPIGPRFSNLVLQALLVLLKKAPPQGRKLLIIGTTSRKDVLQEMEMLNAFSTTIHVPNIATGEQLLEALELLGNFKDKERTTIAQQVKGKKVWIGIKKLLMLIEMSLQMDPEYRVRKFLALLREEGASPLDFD

Chain of NSF T461E mutant (P18708 whole entry T461E): as the sequence (P18708 whole entry S460E) above, with E460S, T461E counted along it

B1: human recombinant PKCε (Invitrogen) (enzyme, UniProt Q02156 1-737, looked up)
chain: MVVFNGLLKIKICEAVSLKPTAWSLRHAVGPRPQTFLLDPYIALNVDDSRIGQTATKQKTNSPAWHDEFVTDVCNGRKIELAVFHDAPIGYDDFVANCTIQFEELLQNGSRHFEDWIDLEPEGRVYVIIDLSGSSGEAPKDNEERVFRERMRPRKRQGAVRRRVHQVNGHKFMATYLRQPTYCSHCRDFIWGVIGKQGYQCQVCTCVVHKRCHELIITKCAGLKKQETPDQVGSQRFSVNMPHKFGIHNYKVPTFCDHCGSLLWGLLRQGLQCKVCKMNVHRRCETNVAPNCGVDARGIAKVLADLGVTPDKITNSGQRRKKLIAGAESPQPASGSSPSEEDRSKSAPTSPCDQEIKELENNIRKALSFDNRGEEHRAASSPDGQLMSPGENGEVRQGQAKRLGLDEFNFIKVLGKGSFGKVMLAELKGKDEVYAVKVLKKDVILQDDDVDCTMTEKRILALARKHPYLTQLYCCFQTKDRLFFVMEYVNGGDLMFQIQRSRKFDEPRSRFYAAEVTSALMFLHQHGVIYRDLKLDNILLDAEGHCKLADFGMCKEGILNGVTTTTFCGTPDYIAPEILQELEYGPSVDWWALGVLMYEMMAGQPPFEADNEDDLFESILHDDVLYPVWLSKEAVSILKAFMTKNPHKRLGCVASQNGEDAIKQHPFFKEIDWVLLEQKKIKPPFKPRIKTKRDVNNFDQDFTREEPVLTLVDEAIVKQINQEEFKGFSYFGEDLMP
Regarding B1, the binding result with NSF T461E mutant and with NSF S460E mutant was “binds” throughout.
